In paper PMC5479810:

Tests used:
[1] = biological target: Tumor necrosis factor alpha (UniProt P01375)
[2] = biological target: Tumor necrosis factor alpha (UniProt P01375); remark: listed apart in the source

Chain of UniProt P01375 (P01375 whole entry): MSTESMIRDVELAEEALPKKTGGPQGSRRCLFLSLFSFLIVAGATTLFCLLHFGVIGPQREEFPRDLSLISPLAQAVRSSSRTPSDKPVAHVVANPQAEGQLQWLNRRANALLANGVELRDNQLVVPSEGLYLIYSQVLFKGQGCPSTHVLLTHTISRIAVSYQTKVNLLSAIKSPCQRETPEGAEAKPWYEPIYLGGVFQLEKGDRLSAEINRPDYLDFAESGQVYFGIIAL

“Etanercept reference product Enbrel (Fc fusion)” showed a % Potency (redox: after serum-like redox conditions), NFκB-luciferase reporter gene assay; Enbrel (1034018), 1.8% C78-C88 [1] of 96%, a % Potency (redox: after serum-like redox conditions), NFκB-luciferase reporter gene assay; Enbrel (1034842), 1.8% C78-C88 [1] of 95% and a % Potency (redox: after serum-like redox conditions), NFκB-luciferase reporter gene assay; Enbrel (1040542), 1.7% C78-C88 [1] of 107%. The % Potency (redox: after serum-like redox conditions), NFκB-luciferase reporter gene assay; Enbrel (1062728), 1.8% C78-C88 [1] was 98%, the % Potency (redox: after serum-like redox conditions), NFκB-luciferase reporter gene assay; Enbrel (J13793), 1.6% C78-C88 [1] was 100% and the % Potency (untreated), relative to reference standard, NFκB-luciferase reporter gene assay; Enbrel (1034018), 2.8% C78-C88 [1] was 81%. For the same substance, the % Potency (untreated), relative to reference standard, NFκB-luciferase reporter gene assay; Enbrel (1034842), 2.5% C78-C88 [1] was 85%, the % Potency (untreated), relative to reference standard, NFκB-luciferase reporter gene assay; Enbrel (1040542), 2.6% C78-C88 [1] was 89% and the % Potency (untreated), relative to reference standard, NFκB-luciferase reporter gene assay; Enbrel (1062728), 2.5% C78-C88 [1] was 85%. For the same substance, the % Potency (untreated), relative to reference standard, NFκB-luciferase reporter gene assay; Enbrel (J13793), 2.3% C78-C88 [1] was 92%.

“Etanercept biosimilar GP2015 (Erelzi) (Fc fusion)” was tested, and the % Potency (redox: after serum-like redox conditions), NFκB-luciferase reporter gene assay; GP2015 DP (30986553), 1.5% C78-C88 [1] was 103%, the % Potency (redox: after serum-like redox conditions), NFκB-luciferase reporter gene assay; GP2015 DP (30986557), 1.3% C78-C88 [1] was 101% and the % Potency (redox: after serum-like redox conditions), NFκB-luciferase reporter gene assay; GP2015 DP (31161503), 1.7% C78-C88 [1] was 98%. It also gave a % Potency (redox: after serum-like redox conditions), NFκB-luciferase reporter gene assay; GP2015 DS (B280815), 1.2% C78-C88 [1] of 103%, a % Potency (redox: after serum-like redox conditions), NFκB-luciferase reporter gene assay; GP2015 process intermediate (CAP.E), 1.6% C78-C88 [1] of 98% and a % Potency (untreated), relative to reference standard, NFκB-luciferase reporter gene assay; GP2015 DP (30986553), 1.2% C78-C88 [1] of 98%. It also gave a % Potency (untreated), relative to reference standard, NFκB-luciferase reporter gene assay; GP2015 DP (30986557), 1.8% C78-C88 [1] of 97%, a % Potency (untreated), relative to reference standard, NFκB-luciferase reporter gene assay; GP2015 DP (31161503), 1.2% C78-C88 [1] of 100% and a % Potency (untreated), relative to reference standard, NFκB-luciferase reporter gene assay; GP2015 DS (B280815), 1.0% C78-C88 [1] of 99%. For the same substance, the % Potency (untreated), relative to reference standard, NFκB-luciferase reporter gene assay; GP2015 process intermediate (CAP.E), 3.4% C78-C88 [1] was 76% and the potency (TNFα inhibition NFκB-luciferase reporter gene assay in HEK293 cells); main peak of large scale HIC separation of GP2015 [2] was 100%.

In the case of “GP2015 late eluting HIC fraction (etanercept enriched in incorrectly disulfide-bridged variants) (Fc fusion)”, the % Potency (redox: after serum-like redox conditions that reshuffle the incorrect bridges), NFκB-luciferase reporter gene assay; GP2015 late eluting HIC fraction, 2.0% C78-C88 [1] was 93% and the % Potency (untreated), relative to reference standard, NFκB-luciferase reporter gene assay; GP2015 late eluting HIC fraction, 5.5% C78-C88 [1] was 58%.
